Results on 2 molecules are retold here after publication PMC9482095.

Series [1] concerns the target T1, FOXO1 FKH wt (UniProt Q12778 151-265). As to the kind of experiment: EMSA. Background: Mobility shift assays separate free from complexed probe on a gel.
In series [2] the target is T1, FOXO1 FKH wt. Kind of series: EMSA. The source holds these as a separate data set.

Like-named read-outs stand apart in the source and are kept apart here.

B1: dsIRE (dsDNA)
DNA 1: TAAGCTAGTGGTTTGTTTTGCTTGCTAGCAAT
DNA 2: ATTGCTAGCAAGCAAAACAAACCACTAGCTTA
As a reminder, the Kd is a measure of binding affinity in units of concentration. B1 yielded a Kd in series [1] of 0.2 ± 0.07 µM.

B2: dsDBE2 (dsDNA)
DNA 1: TAAGCTAGTCTTGTTTACATTTTGCTAGCAAT
DNA 2: ATTGCTAGCAAAATGTAAACAAGACTAGCTTA
B2 gave a Kd in series [2] of 0.09 µM.
